From patent publication US12258430B2, “Compositions and methods for labeling and modulation of cells in vitro and in vivo” (President and Fellows of Harvard College, priority 2018, dated 2025)

Tests used:
[1] = system: DC2.4 cells; assay: Metabolic labeling of DC2.4 cells with azido-sugars, detected by DBCO agents (flow cytometry); type: cell-based; settings: 3 days incubation, DBCO-Cy5 staining 30 min; vs control cells without pretreatment
Experimental: It was first tested whether tetraacetyl-N-azidoacetylmannosamine (Ac4ManAz), a commonly used metabolic labeling agent, can label DC2.4 cell line with azido groups (FIG. 2A). Ac4ManAz was synthesized following the reported procedure (Wang, H. et al. Selective in vivo metabolic cell-labeling-mediated cancer targeting. Nature Chemical Biology 13, 415-424 (2017)). […] For flow cytometry analysis of azido-labeled cells, cells were seeded in a 24-well plate at a density of 1×10^4 cells per well and allowed to attach for 12 hours. Azido-sugar was added and incubated with cells for 72 hours. […] Cells were then collected via a cell scraper, re-suspended in FACS buffer, and analyzed by flow cytometry.

[2] = Water-solubility of azido-sugar; type: physicochemical
[3] = system: azido-labeled BMDCs; assay: In vitro capture of DBCO-OVA and DBCO-CpG by azido-labeled BMDCs; type: cell-based; settings: BMDCs labeled with G400 NP three days, 30 min incubation; vs FITC-OVA
Experimental: Another objective of this invention was to utilize azido-labeled DCs, as achieved above, for LN-targeted delivery of DBCO-bearing antigens and adjuvants. It was first studied whether azido-labeled DCs could covalently capture DBCO-ovalbumin (OVA) and DBCO-CpG in vitro. BMDCs were labeled with G400 NP for three days and incubated with DBCO/FITC-OVA or FITC-OVA for 30 min. […] Similarly, BMDCs pretreated with G400 NP were able to capture more DBCO/Cy5-CpG than control BMDCs (FIGS. 5C and 5D).

[4] = system: azido-labeled DCs in dLNs; assay: In vivo LN-targeted delivery of DBCO-OVA; design: species or system C57BL/6 mice; settings: for A647 signal of LNs: 48 h post injection
Text: It was next studied whether the azido-labeled DCs in dLNs can mediate targeted delivery of DBCO-OVA via Click chemistry.

CC(=O)OC[C@H]1OC(OC(C)=O)[C@@H](NC(=O)CN=[N+]=[N-])[C@@H](OC(C)=O)[C@@H]1OC(C)=O (some centres unmarked) [Ac4ManAz, tetraacetyl-N-azidoacetylmannosamine]
Cy5 signal of DC2.4 cells [1]: significantly enhanced Cy5 signal
water-solubility [2]: poor

B1: DBCO/FITC-OVA: DBCO- and FITC-modified ovalbumin (conjugate, UniProt P01012 2-386, looked up)
Ovalbumin: GSIGAASMEFCFDVFKELKVHHANENIFYCPIAIMSALAMVYLGAKDSTRTQINKVVRFDKLPGFGDSIEAQCGTSVNVHSSLRDILNQITKPNDVYSFSLASRLYAEERYPILPEYLQCVKELYRGGLEPINFQTAADQARELINSWVESQTNGIIRNVLQPSSVDSQTAMVLVNAIVFKGLWEKAFKDEDTQAMPFRVTEQESKPVQMMYQIGLFRVASMASEKMKILELPFASGTMSMLVLLPDEVSGLEQLESIINFEKLTEWTSSNVMEERKIKVYLPRMKMEEKYNLTSVLMAMGITDVFSSSANLSGISSAESLKISQAVHAAHAEINEAGREVVGSAEAGVDAASVSEEFRADHPFLFCIKHIATNAVLFFGRCVSP
modifications: FITC, DBCO
notes: DBCO- and FITC-modified ovalbumin
cellular uptake by azido-labeled BMDCs [3]: improved cellular uptake

B2: DBCO/A647-OVA: Alexa fluor647 (A647)-conjugated DBCO-OVA (conjugate, UniProt P01012 2-386, looked up)
Ovalbumin: GSIGAASMEFCFDVFKELKVHHANENIFYCPIAIMSALAMVYLGAKDSTRTQINKVVRFDKLPGFGDSIEAQCGTSVNVHSSLRDILNQITKPNDVYSFSLASRLYAEERYPILPEYLQCVKELYRGGLEPINFQTAADQARELINSWVESQTNGIIRNVLQPSSVDSQTAMVLVNAIVFKGLWEKAFKDEDTQAMPFRVTEQESKPVQMMYQIGLFRVASMASEKMKILELPFASGTMSMLVLLPDEVSGLEQLESIINFEKLTEWTSSNVMEERKIKVYLPRMKMEEKYNLTSVLMAMGITDVFSSSANLSGISSAESLKISQAVHAAHAEINEAGREVVGSAEAGVDAASVSEEFRADHPFLFCIKHIATNAVLFFGRCVSP
modifications: Alexa Fluor 647, DBCO
percentage of A647-OVA+ DCs in dLNs ([4]; 6 h post injection): ~43%
A647 fluorescent signal in dLNs ([4]; 6 h post injection, vs A647-OVA): significantly enhanced A647 fluorescent signal
accumulation in dLNs ([4]; 24 h post injection, vs A647-OVA): significantly improved accumulation
A647 signal of LNs [4]: dramatically decreased

B3: A647-OVA: Alexa fluor647-conjugated OVA without DBCO (conjugate, UniProt P01012 2-386, looked up)
Ovalbumin: GSIGAASMEFCFDVFKELKVHHANENIFYCPIAIMSALAMVYLGAKDSTRTQINKVVRFDKLPGFGDSIEAQCGTSVNVHSSLRDILNQITKPNDVYSFSLASRLYAEERYPILPEYLQCVKELYRGGLEPINFQTAADQARELINSWVESQTNGIIRNVLQPSSVDSQTAMVLVNAIVFKGLWEKAFKDEDTQAMPFRVTEQESKPVQMMYQIGLFRVASMASEKMKILELPFASGTMSMLVLLPDEVSGLEQLESIINFEKLTEWTSSNVMEERKIKVYLPRMKMEEKYNLTSVLMAMGITDVFSSSANLSGISSAESLKISQAVHAAHAEINEAGREVVGSAEAGVDAASVSEEFRADHPFLFCIKHIATNAVLFFGRCVSP
modifications: Alexa Fluor 647
notes: Alexa fluor647-conjugated OVA without DBCO
A647 signal of LNs [4]: dramatically decreased
